Measurements reported in the supplement of paper PMC11246515.
± gives the standard deviation of the averaged measurements.

Test: total protein half-life in vivo (active degradation + dilution); higher = more stable protein
[1] = E. coli NCM3722 delta-clpP delta-lon delta-hslV, growth: N-lim chemostat, doubling time 6 h
[2] = E. coli NCM3722 delta-lon, growth: N-lim chemostat, doubling time 6 h
[3] = E. coli NCM3722 delta-smpB, growth: N-lim chemostat, doubling time 6 h
[4] = wild type E. coli NCM3722, growth: C-lim chemostat, doubling time 3 h
[5] = wild type E. coli NCM3722, growth: C-lim chemostat, doubling time 6 h
[6] = wild type E. coli NCM3722, growth: C-lim chemostat, doubling time 12 h
[7] = wild type E. coli NCM3722, growth: P-lim chemostat, doubling time 6 h
[8] = wild type E. coli NCM3722, growth: P-lim chemostat, doubling time 12 h
[9] = E. coli NCM3722 delta-clpP, growth: N-lim chemostat, doubling time 6 h
[10] = E. coli NCM3722 delta-hslV, growth: N-lim chemostat, doubling time 6 h
[11] = wild type E. coli NCM3722, growth: N-lim chemostat, doubling time 6 h
[12] = wild type E. coli NCM3722, growth: N-lim chemostat, doubling time 12 h

MYERYAGLIFDMDGTILDTEPTHRKAWREVLGHYGLQYDIQAMIALNGSPTWRIAQAIIELNQADLDPHALAREKTEAVRSMLLDSVEPLPLVDVVKSWHGRRPMAVGTGSESAIAEALLAHLGLRHYFDAVVAADHVKHHKPAPDTFLLCAQRMGVQPTQCVVFEDADFGIQAARAAGMDAVDVRLL
total protein half-life in vivo [1]: 5.33 ± 0.13 h
total protein half-life in vivo [2]: 4.41 h
total protein half-life in vivo [3]: 1.29 h
total protein half-life in vivo [4]: 2.62 ± 0.62 h
total protein half-life in vivo [5]: 4.33 ± 0.098 h
total protein half-life in vivo [6]: 6.18 h
total protein half-life in vivo [7]: 2.46 ± 0.33 h
total protein half-life in vivo [8]: 7.98 ± 0.48 h

MYIGIDLGTSGVKVILLNEQGEVVAAQTEKLTVSRPHPLWSEQDPEQWWQATDRAMKALGDQHSLQDVKALGIAGQMHGATLLDAQQRVLRPAILWNDGRCAQECTLLEARVPQSRVITGNLMMPGFTAPKLLWVQRHEPEIFRQIDKVLLPKDYLRLRMTGEFASDMSDAAGTMWLDVAKRDWSDVMLQACDLSRDQMPALYEGSEITGALLPEVAKAWGMATVPVVAGGGDNAAGAVGVGMVDANQAMLSLGTSGVYFAVSEGFLSKPESAVHSFCHALPQRWHLMSVMLSAASCLDWAAKLTGLSNVPALIAAAQQADESAEPVWFLPYLSGERTPHNNPQAKGVFFGLTHQHGPNELARAVLEGVGYALADGMDVVHACGIKPQSVTLIGGGARSEYWRQMLADISGQQLDYRTGGDVGPALGAARLAQIAANPEKSLIELLPQLPLEQSHLPDAQRYAAYQPRRETFRRLYQQLLPLMA
total protein half-life in vivo [1]: 5.25 ± 0.23 h
total protein half-life in vivo [9]: 4.96 ± 0.27 h
total protein half-life in vivo [10]: 5.75 ± 1.6 h
total protein half-life in vivo [2]: 4.82 ± 0.32 h
total protein half-life in vivo [3]: 4.5 ± 0.047 h
total protein half-life in vivo [4]: 3.52 ± 0.21 h
total protein half-life in vivo [5]: 5.87 ± 0.13 h
total protein half-life in vivo [6]: 9.67 ± 1.8 h
total protein half-life in vivo [11]: 4.57 ± 0.12 h
total protein half-life in vivo [12]: 8 ± 1.8 h
total protein half-life in vivo [7]: 6.62 ± 0.53 h
total protein half-life in vivo [8]: 12.5 ± 0.58 h

MYKTIIMPVDVFEMELSDKAVRHAEFLAQDDGVIHLLHVLPGSASLSLHRFAADVRRFEEHLQHEAQERLQTMVSHFTIDPSRIKQHVRFGSVRDEVNELAEELGADVVVIGSRNPSISTHLLGSNASSVIRHANLPVLVVR
total protein half-life in vivo [10]: 4.48 h
total protein half-life in vivo [2]: 4.71 ± 0.33 h
total protein half-life in vivo [3]: 4.18 ± 0.48 h
total protein half-life in vivo [4]: 3.06 ± 0.038 h
total protein half-life in vivo [5]: 6.27 h
total protein half-life in vivo [6]: 12 ± 1.8 h
total protein half-life in vivo [11]: 3.99 ± 0.43 h
total protein half-life in vivo [12]: 6.48 ± 0.34 h
total protein half-life in vivo [7]: 6.06 ± 0.33 h
total protein half-life in vivo [8]: 10.7 h

MYLSKVIIARAWSRDLYQLHQGLWHLFPNRPDAARDFLFHVEKRNTPEGCHVLLQSAQMPVSTAVATVIKTKQVEFQLQVGVPLYFRLRANPIKTILDNQKRLDSKGNIKRCRVPLIKEAEQIAWLQRKLGNAARVEDVHPISERPQYFSGDGKSGKIQTVCFEGVLTINDAPALIDLVQQGIGPAKSMGCGLLSLAPL
total protein half-life in vivo [1]: 5.96 ± 0.57 h
total protein half-life in vivo [4]: 1.61 h

MYPVDLHMHTVASTHAYSTLSDYIAQAKQKGIKLFAITDHGPDMEDAPHHWHFINMRIWPRVVDGVGILRGIEANIKNVDGEIDCSGKMFDSLDLIIAGFHEPVFAPHDKATNTQAMIATIASGNVHIISHPGNPKYEIDVKAVAEAAAKHQVALEINNSSFLHSRKGSEDNCREVAAAVRDAGGWVALGSDSHTAFTMGEFEECLKILDAVDFPPERILNVSPRRLLNFLESRGMAPIAEFADL
total protein half-life in vivo [1]: 4.97 ± 0.41 h
total protein half-life in vivo [9]: 4.01 ± 0.17 h
total protein half-life in vivo [10]: 3.945 ± 0.0077 h
total protein half-life in vivo [2]: 4.67 ± 0.18 h
total protein half-life in vivo [3]: 3.925 ± 0.00062 h
total protein half-life in vivo [4]: 3.11 ± 0.53 h
total protein half-life in vivo [5]: 4.99 ± 0.23 h
total protein half-life in vivo [6]: 9.55 ± 1.1 h
total protein half-life in vivo [11]: 4.04 ± 0.4 h
total protein half-life in vivo [12]: 6.47 ± 0.46 h
total protein half-life in vivo [7]: 5.73 ± 0.19 h
total protein half-life in vivo [8]: 11.9 ± 0.49 h

MYQHHNWQGALLDYPVSKVVCVGSNYAKHIKEMGSAVPEEPVLFIKPETALCDLRQPLAIPSDFGSVHHEVELAVLIGATLRQATEEHVRKAIAGYGVALDLTLRDVQGKMKKAGQPWEKAKAFDNSCPLSGFIPAAEFTGDPQNTTLSLSVNGEQRQQGTTADMIHKIVPLIAYMSKFFTLKAGDVVLTGTPDGVGPLQSGDELTVTFDGHSLTTRVL
total protein half-life in vivo [1]: 6.01 ± 0.48 h
total protein half-life in vivo [9]: 4.64 ± 0.98 h
total protein half-life in vivo [10]: 5.44 ± 0.96 h
total protein half-life in vivo [2]: 5.67 ± 0.93 h
total protein half-life in vivo [3]: 4.95 ± 0.3 h
total protein half-life in vivo [4]: 3.26 ± 0.39 h
total protein half-life in vivo [5]: 6.22 ± 0.61 h
total protein half-life in vivo [6]: 11.2 ± 0.037 h
total protein half-life in vivo [11]: 5.18 ± 0.86 h
total protein half-life in vivo [12]: 10.1 ± 0.033 h
total protein half-life in vivo [7]: 5.856 ± 0.052 h
total protein half-life in vivo [8]: 12.6 ± 0.54 h

MYQPDFPPVPFRSGLYPVVDSVQWIERLLDAGVRTLQLRIKDRRDEEVEADVVAAIALGRRYNARLFINDYWRLAIKHQAYGVHLGQEDLQATDLNAIRAAGLRLGVSTHDDMEIDVALAARPSYIALGHVFPTQTKQMPSAPQGLEQLARHVERLADYPTVAIGGISLARAPAVIATGVGSIAVVSAITQAADWRLATAQLLEIAGVGDE
total protein half-life in vivo [1]: 6.1 ± 1.1 h
total protein half-life in vivo [9]: 3.05 ± 0.11 h
total protein half-life in vivo [10]: 3.34 ± 0.23 h
total protein half-life in vivo [2]: 4.173 ± 0.028 h
total protein half-life in vivo [3]: 2.77 ± 0.045 h
total protein half-life in vivo [4]: 2.31 ± 0.52 h
total protein half-life in vivo [5]: 4.76 ± 0.58 h
total protein half-life in vivo [6]: 6.78 ± 0.74 h
total protein half-life in vivo [11]: 3.01 ± 0.54 h
total protein half-life in vivo [12]: 5.18 ± 0.5 h
total protein half-life in vivo [7]: 2.01 ± 0.57 h
total protein half-life in vivo [8]: 3.48 ± 0.66 h

MYQVVASDLDGTLLSPDHTLSPYAKETLKLLTARGINFVFATGRHHVDVGQIRDNLEIKSYMITSNGARVHDLDGNLIFAHNLDRDIASDLFGVVNDNPDIITNVYRDDEWFMNRHRPEEMRFFKEAVFQYALYEPGLLEPEGVSKVFFTCDSHEQLLPLEQAINARWGDRVNVSFSTLTCLEVMAGGVSKGHALEAVAKKLGYSLKDCIAFGDGMNDAEMLSMAGKGCIMGSAHQRLKDLHPELEVIGTNADDAVPHYLRKLYLS
total protein half-life in vivo [1]: 3.6 ± 0.88 h
total protein half-life in vivo [9]: 2.94 ± 0.046 h
total protein half-life in vivo [10]: 3.53 ± 0.15 h
total protein half-life in vivo [2]: 3.67 ± 0.27 h
total protein half-life in vivo [3]: 3.31 ± 0.055 h
total protein half-life in vivo [5]: 4.88 ± 0.24 h
total protein half-life in vivo [6]: 8.98 ± 0.53 h
total protein half-life in vivo [11]: 3.39 ± 0.091 h
total protein half-life in vivo [12]: 5.36 ± 0.23 h
total protein half-life in vivo [7]: 4.82 ± 0.18 h
total protein half-life in vivo [8]: 10.2 ± 0.16 h

MYRIVLGKVSTLSAAPLPPGLREQAPQGPRRERWLAGRALLSHTLSPLPEIIYGEQGKPAFAPEMPLWFNLSHSGDDIALLLSDEGEVGCDIEVIRPRANWRWLANAVFSLGEHAEMDAVHPDQQLEMFWRIWTRKEAIVKQRGGSAWQIVSVDSTYHSSLSVSHCQLENLSLAICTPTPFTLTADSVQWIDSVN
total protein half-life in vivo [1]: 4.86 ± 0.67 h
total protein half-life in vivo [10]: 3.56 ± 0.17 h
total protein half-life in vivo [2]: 3.99 ± 0.64 h
total protein half-life in vivo [3]: 2.53 ± 0.075 h
total protein half-life in vivo [4]: 2.55 ± 0.032 h
total protein half-life in vivo [5]: 4.94 ± 0.18 h
total protein half-life in vivo [6]: 8.278 ± 0.081 h
total protein half-life in vivo [11]: 3.78 ± 0.16 h
total protein half-life in vivo [12]: 6.11 ± 0.44 h
total protein half-life in vivo [7]: 5.86 ± 0.65 h
total protein half-life in vivo [8]: 11.1 ± 2.4 h

MYSSSRKRCPKTKWALKLLTAAFLAASPAAKSAVNNAYDALIIEARKGNTQPALSWFALKSALSNNQIADWLQIALWAGQDKQVITVYNRYRHQQLPARGYAAVAVAYRNLQQWQNSLTLWQKALSLEPQNKDYQRGQILTLADAGHYDTALVKLKQLNSGAPDKANLLAEAYIYKLAGRHQDELRAMTESLPENASTQQYPTEYVQALRNNQLAAAIDDANLTPDIRADIHAELVRLSFMPTRSESERYAIADRALAQYAALEILWHDNPDRTAQYQRIQVDHLGALLTRDRYKDVISHYQRLKKTGQIIPPWGQYWVASAYLKDHQPKKAQSIMTELFYHKETIAPDLSDEELADLFYSHLESENYPGALTVTQHTINTSPPFLRLMGTPTSIPNDTWLQGHSFLSTVAKYSNDLPQAEMTARELAYNAPGNQGLRIDYASVLQARGWPRAAENELKKAEVIEPRNINLEVEQAWTALTLQEWQQAAVLTHDVVEREPQDPGVVRLKRAVDVHNLAELRIAGSTGIDAEGPDSGKHDVDLTTIVYSPPLKDNWRGFAGFGYADGQFSEGKGIVRDWLAGVEWRSRNIWLEAEYAERVFNHEHKPGARLSGWYDFNDNWRIGSQLERLSHRVPLRAMKNGVTGNSAQAYVRWYQNERRKYGVSWAFTDFSDSNQRHEVSLEGQERIWSSPYLIVDFLPSLYYEQNTEHDTPYYNPIKTFDIVPAFEASHLLWRSYENSWEQIFSAGVGASWQKHYGTDVVTQLGYGQRISWNDVIDAGATLRWEKRPYDGDREHNLYVEFDMTFRF
total protein half-life in vivo [6]: > 16 h

MYTRNLLWLVSLVSAAPLYAADVPANTPLAPQQVFRYNNHSDPGTLDPQKVEENTAAQIVLDLFEGLVWMDGEGQVQPAQAERWEILDGGKRYIFHLRSGLQWSDGQPLTAEDFVLGWQRAVDPKTASPFAGYLAQAHINNAAAIVAGKADVTSLGVKATDDRTLEVTLEQPVPWFTTMLAWPTLFPVPHHVIAKHGDSWSKPENMVYNGAFVLDQWVVNEKITARKNPKYRDAQHTVLQQVEYLALDNSVTGYNRYRAGEVDLTWVPAQQIPAIEKSLPGELRIIPRLNSEYYNFNLEKPPFNDVRVRRALYLTVDRQLIAQKVLGLRTPATTLTPPEVKGFSATTFDELQKPMSERVAMAKALLKQAGYDASHPLRFELFYNKYDLHEKTAIALSSEWKKWLGAQVTLRTMEWKTYLDARRAGDFMLSRQSWDATYNDASSFLNTLKSDSEENVGHWKNAQYDALLNQATQITDATKRNALYQQAEVIINQQAPLIPIYYQPLIKLLKPYVGGFPLHNPQDYVYSKELYIKAH
total protein half-life in vivo [9]: 5.575 ± 0.035 h
total protein half-life in vivo [10]: 6.61 ± 1.4 h
total protein half-life in vivo [2]: 6.72 ± 0.075 h
total protein half-life in vivo [3]: 5.64 ± 0.24 h
total protein half-life in vivo [4]: 2.9 ± 0.11 h
total protein half-life in vivo [5]: 5.96 ± 0.64 h
total protein half-life in vivo [6]: 11 ± 0.65 h
total protein half-life in vivo [11]: 5.531 ± 0.0077 h
total protein half-life in vivo [7]: 5.83 ± 0.61 h
total protein half-life in vivo [8]: 11.7 ± 0.71 h

MYVAVKGGEKAIDAAHALQESRRRGDTDLPELSVAQIEQQLNLAVDRVMTEGGIADRELAALALKQASGDNVEAIFLLRAYRTTLAKLAVSEPLDTTGMRLERRISAVYKDIPGGQLLGPTYDYTHRLLDFTLLANGEAPTLTTADSEQQPSPHVFSLLARQGLAKFEEDSGAQPDDITRTPPVYPCSRSSRLQQLMRGDEGYLLALAYSTQRGYGRNHPFAGEIRSGYIDVSIVPEELGFAVNVGELLMTECEMVNGFIDPPGEPPHFTRGYGLVFGMSERKAMAMALVDRALQAPEYGEHATGPAQDEEFVLAHADNVEAAGFVSHLKLPHYVDFQAELELLKRLQQEQNHG
total protein half-life in vivo [7]: 0.609 ± 0.46 h
total protein half-life in vivo [8]: 1.36 ± 0.41 h
